Results: paper PMC9241776, “Azole Resistance-Associated Regulatory Motifs within the Promoter of cyp51A in Aspergillus fumigatus”

Target: T1, AtrR (Zn2Cys6 cluster and coiled-coil) (Aspergillus fumigatus, UniProt Q4WI89 50-160)
T1 sequence: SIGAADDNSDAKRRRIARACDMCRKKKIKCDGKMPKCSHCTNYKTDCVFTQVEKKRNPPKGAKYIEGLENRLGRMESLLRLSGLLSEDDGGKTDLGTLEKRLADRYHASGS
Test: SPR; largely unaffected; SPR as in earlier publications; binding buffer and temperature not in the material (SEC buffer for AtrR and SrbA: 20 mM HEPES, 150 mM NaCl); 1:1 model with mass transport
Details: protein: recombinant; tags: N-terminal MBP, removed by TEV; chain copies: 2

B1: Pcyp51A SrbA* (dsDNA)
DNA 1: TCTAGAATTCCGAAGTCCGGATGTGTGCTGAGCCGAATGAA
DNA 2: TTCATTCGGCTCAGCACACATCCGGACTTCGGAATTCTAGA
  binding result: binds
